T1: human PAC1 receptor (human, UniProt P41586 24-468)
T1 sequence: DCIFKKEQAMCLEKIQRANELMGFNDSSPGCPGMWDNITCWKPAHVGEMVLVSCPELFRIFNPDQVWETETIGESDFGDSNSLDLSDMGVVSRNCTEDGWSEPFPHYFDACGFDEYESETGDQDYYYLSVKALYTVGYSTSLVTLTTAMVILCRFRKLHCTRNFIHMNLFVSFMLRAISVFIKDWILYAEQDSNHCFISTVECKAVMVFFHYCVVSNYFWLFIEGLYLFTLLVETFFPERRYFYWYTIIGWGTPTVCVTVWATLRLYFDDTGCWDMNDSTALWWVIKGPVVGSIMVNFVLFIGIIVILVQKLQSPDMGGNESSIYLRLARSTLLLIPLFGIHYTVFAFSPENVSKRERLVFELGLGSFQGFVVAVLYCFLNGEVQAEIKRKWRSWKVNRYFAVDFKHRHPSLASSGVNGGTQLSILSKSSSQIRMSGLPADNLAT


Key:
human CGRP receptor = human CGRP receptor (human, UniProt Q16602 23-461; O60894 27-148); assay: cell-based or functional assay
Sequence of human CGRP receptor (Q16602 23-461 limits assumed, chain 1 of 2): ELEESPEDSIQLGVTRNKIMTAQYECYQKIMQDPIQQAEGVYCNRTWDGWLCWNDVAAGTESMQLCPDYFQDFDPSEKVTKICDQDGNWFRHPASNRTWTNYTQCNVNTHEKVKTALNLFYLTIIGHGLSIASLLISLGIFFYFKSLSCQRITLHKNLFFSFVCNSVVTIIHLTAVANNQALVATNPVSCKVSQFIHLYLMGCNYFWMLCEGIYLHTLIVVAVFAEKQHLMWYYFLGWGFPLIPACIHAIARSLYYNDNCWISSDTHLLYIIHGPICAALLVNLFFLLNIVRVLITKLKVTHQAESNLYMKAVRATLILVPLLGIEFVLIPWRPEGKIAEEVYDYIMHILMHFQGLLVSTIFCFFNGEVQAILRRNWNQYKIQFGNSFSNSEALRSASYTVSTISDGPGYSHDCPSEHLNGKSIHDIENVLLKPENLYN
Sequence of human CGRP receptor (O60894 27-148 limits assumed, chain 2 of 2): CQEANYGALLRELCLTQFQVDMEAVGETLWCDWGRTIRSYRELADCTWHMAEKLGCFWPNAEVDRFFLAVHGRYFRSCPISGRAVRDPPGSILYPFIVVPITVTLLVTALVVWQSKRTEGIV

human PAC1 receptor = target: T1, human PAC1 receptor; assay: cell-based or functional assay

Row | Fold-improvement over 4E4 Ab (human CGRP receptor) [fold] | IC50 (human CGRP receptor) [nM] | Fold-improvement over 29G4v22 Ab (human PAC1 receptor) [fold] | IC50 (human PAC1 receptor) [nM] | Binder
1 | 0.5 | 1.16 | 10.2 | 0.72 | iPS:454903 (bispecific antibody, human IgG1, kappa, lambda, N297G) light 1: QSVLTQPPSVSAAPGQKVTISCSGSSSNIGNNYVSWYQQLPGTAPKLLIYDNNKRPSGIPDRFSGSKSGTSTTLGITGLQTGDEADYYCGTWDSRLSAVVFGGGTKLTVLGQPKAAPSVTLFPPSSEELQANKATLVCLISDFYPGAVTVAWKADSSPVKAGVETTTPSKQSNNKYAAKSYLSLTPEQWKSHRSYSCQVTHEGSTVEKTVAPTECS heavy 1: QVQLVESGGGVVQPGRSLRLSCAASGFTFSSFGMHWVRQAPGKGLEWVAVISFDGSIKYSVDSVKGRFTISRDNSKNTLFLQMNSLRAEDTAVYYCARDRLNYYRSFGYYGYHYYGMAVWGQGTTVTVSSASTKGPSVFPLAPSSKSTSGGTAALGCLVKDYFPEPVTVSWNSGALTSGVHTFPAVLQSSGLYSLESVVTVPSSSLGTQTYICNVNHKPSNTKVDKKVEPKSCDKTHTCPPCPAPELLGGPSVFLFPPKPKDTLMISRTPEVTCVVVDVSHEDPEVKFNWYVDGVEVHNAKTKPCEEQYGSTYRCVSVLTVLHQDWLNGKEYKCKVSNKALPAPIEKTISKAKGQPREPQVYTLPPSRKKMTKNQVSLTCLVKGFYPSDIAVEWESNGQPENNYKTTPPVLKSDGSFFLYSKLTVDKSRWQQGNVFSCSVMHEALHNHYTQKSLSLSPGK light 2: EIVLTQSPATLSLSPGERATLSCRASKSVGWSLHWYQQKPGQAPRLLIKYASQSLSGIPARFSGSGSGTDFTLTISSLEPEDFAVYYCHQSSRLPFTFGPGTKVDIKRTVAAPSVFIFPPSDEQLKSGTASVVCLLNNFYPREAKVQWKVDNALQSGNSQESVTEQDSKDSTYSLESTLTLSKADYEKHKVYACEVTHQGLSSPVTKSFNRGEC heavy 2: not shown
2 | 0.4 | 1.63 | 5.4 | 1.37 | iPS:454907 (bispecific antibody, human IgG1, kappa, lambda, N297G) light 1: QSVLTQPPSVSAAPGQKVTISCSGSSSNIGNNYVSWYQQLPGTAPKLLIYDNNKRPSGIPDRFSGSKSGTSTTLGITGLQTGDEADYYCGTWDSRLSAVVFGGGTKLTVLGQPKAAPSVTLFPPSSEELQANKATLVCLISDFYPGAVTVAWKADSSPVKAGVETTTPSKQSNNKYAAKSYLSLTPEQWKSHRSYSCQVTHEGSTVEKTVAPTECS heavy 1: QVQLVESGGGVVQPGRSLRLSCAASGFTFSSFGMHWVRQAPGKGLEWVAVISFDGSIKYSVDSVKGRFTISRDNSKNTLFLQMNSLRAEDTAVYYCARDRLNYYRSFGYYGYHYYGMAVWGQGTTVTVSSASTKGPSVFPLAPSSKSTSGGTAALGCLVKDYFPEPVTVSWNSGALTSGVHTFPAVLQSSGLYSLESVVTVPSSSLGTQTYICNVNHKPSNTKVDKKVEPKSCDKTHTCPPCPAPELLGGPSVFLFPPKPKDTLMISRTPEVTCVVVDVSHEDPEVKFNWYVDGVEVHNAKTKPCEEQYGSTYRCVSVLTVLHQDWLNGKEYKCKVSNKALPAPIEKTISKAKGQPREPQVYTLPPSRKKMTKNQVSLTCLVKGFYPSDIAVEWESNGQPENNYKTTPPVLKSDGSFFLYSKLTVDKSRWQQGNVFSCSVMHEALHNHYTQKSLSLSPGK light 2: EIVLTQSPATLSLSPGERATLSCRASKSVGWSLHWYQQKPGQAPRLLIKYASQSLSGIPARFSGSGSGTDFTLTISSLEPEDFAVYYCHQSSRLPFTFGPGTKVDIKRTVAAPSVFIFPPSDEQLKSGTASVVCLLNNFYPREAKVQWKVDNALQSGNSQESVTEQDSKDSTYSLESTLTLSKADYEKHKVYACEVTHQGLSSPVTKSFNRGEC heavy 2: not shown
3 | 0.5 | 1.13 | 9.2 | 0.79 | iPS:454905 (bispecific antibody, human IgG1, kappa, lambda, N297G) light 1: QSVLTQPPSVSAAPGQKVTISCSGSSSNIGNNYVSWYQQLPGTAPKLLIYDNNKRPSGIPDRFSGSKSGTSTTLGITGLQTGDEADYYCGTWDSRLSAVVFGGGTKLTVLGQPKAAPSVTLFPPSSEELQANKATLVCLISDFYPGAVTVAWKADSSPVKAGVETTTPSKQSNNKYAAKSYLSLTPEQWKSHRSYSCQVTHEGSTVEKTVAPTECS heavy 1: QVQLVESGGGVVQPGRSLRLSCAASGFTFSSFGMHWVRQAPGKGLEWVAVISFDGSIKYSVDSVKGRFTISRDNSKNTLFLQMNSLRAEDTAVYYCARDRLNYYRSFGYYGYHYYGMAVWGQGTTVTVSSASTKGPSVFPLAPSSKSTSGGTAALGCLVKDYFPEPVTVSWNSGALTSGVHTFPAVLQSSGLYSLESVVTVPSSSLGTQTYICNVNHKPSNTKVDKKVEPKSCDKTHTCPPCPAPELLGGPSVFLFPPKPKDTLMISRTPEVTCVVVDVSHEDPEVKFNWYVDGVEVHNAKTKPCEEQYGSTYRCVSVLTVLHQDWLNGKEYKCKVSNKALPAPIEKTISKAKGQPREPQVYTLPPSRKKMTKNQVSLTCLVKGFYPSDIAVEWESNGQPENNYKTTPPVLKSDGSFFLYSKLTVDKSRWQQGNVFSCSVMHEALHNHYTQKSLSLSPGK light 2: EIVLTQSPATLSLSPGERATLSCRASKSVGWSLHWYQQKPGQAPRLLIKYASQSLSGIPARFSGSGSGTDFTLTISSLEPEDFAVYYCHQSSRLPFTFGPGTKVDIKRTVAAPSVFIFPPSDEQLKSGTASVVCLLNNFYPREAKVQWKVDNALQSGNSQESVTEQDSKDSTYSLESTLTLSKADYEKHKVYACEVTHQGLSSPVTKSFNRGEC heavy 2: not shown

The remaining lines, values behind:

Row | Binder | Fold-improvement over 4E4 Ab (human CGRP receptor) [fold] | IC50 (human CGRP receptor) [nM] | Fold-improvement over 29G4v22 Ab (human PAC1 receptor) [fold] | IC50 (human PAC1 receptor) [nM]
4 | iPS:454899 (bispecific antibody, human IgG1, kappa, lambda, N297G) light 1: QSVLTQPPSVSAAPGQKVTISCSGSSSNIGNNYVSWYQQLPGTAPKLLIYDNNKRPSGIPDRFSGSKSGTSTTLGITGLQTGDEADYYCGTWDSRLSAVVFGGGTKLTVLGQPKAAPSVTLFPPSSEELQANKATLVCLISDFYPGAVTVAWKADSSPVKAGVETTTPSKQSNNKYAAKSYLSLTPEQWKSHRSYSCQVTHEGSTVEKTVAPTECS heavy 1: QVQLVESGGGVVQPGRSLRLSCAASGFTFSSFGMHWVRQAPGKGLEWVAVISFDGSIKYSVDSVKGRFTISRDNSKNTLFLQMNSLRAEDTAVYYCARDRLNYYRSFGYYGYHYYGMAVWGQGTTVTVSSASTKGPSVFPLAPSSKSTSGGTAALGCLVKDYFPEPVTVSWNSGALTSGVHTFPAVLQSSGLYSLESVVTVPSSSLGTQTYICNVNHKPSNTKVDKKVEPKSCDKTHTCPPCPAPELLGGPSVFLFPPKPKDTLMISRTPEVTCVVVDVSHEDPEVKFNWYVDGVEVHNAKTKPCEEQYGSTYRCVSVLTVLHQDWLNGKEYKCKVSNKALPAPIEKTISKAKGQPREPQVYTLPPSRKKMTKNQVSLTCLVKGFYPSDIAVEWESNGQPENNYKTTPPVLKSDGSFFLYSKLTVDKSRWQQGNVFSCSVMHEALHNHYTQKSLSLSPGK light 2: EIVLTQSPATLSLSPGERATLSCRASKSVGRSLHWYQQKPGQAPRLLIKYASQSLSGIPARFSGSGSGTDFTLTISSLEPEDFAVYYCHQSSRLPFTFGPGTKVDIKRTVAAPSVFIFPPSDEQLKSGTASVVCLLNNFYPREAKVQWKVDNALQSGNSQESVTEQDSKDSTYSLESTLTLSKADYEKHKVYACEVTHQGLSSPVTKSFNRGEC heavy 2: not shown | 0.6 | 1.04 | 5.2 | 1.41
5 | iPS:454901 (bispecific antibody, human IgG1, kappa, lambda, N297G) light 1: QSVLTQPPSVSAAPGQKVTISCSGSSSNIGNNYVSWYQQLPGTAPKLLIYDNNKRPSGIPDRFSGSKSGTSTTLGITGLQTGDEADYYCGTWDSRLSAVVFGGGTKLTVLGQPKAAPSVTLFPPSSEELQANKATLVCLISDFYPGAVTVAWKADSSPVKAGVETTTPSKQSNNKYAAKSYLSLTPEQWKSHRSYSCQVTHEGSTVEKTVAPTECS heavy 1: QVQLVESGGGVVQPGRSLRLSCAASGFTFSSFGMHWVRQAPGKGLEWVAVISFDGSIKYSVDSVKGRFTISRDNSKNTLFLQMNSLRAEDTAVYYCARDRLNYYRSFGYYGYHYYGMAVWGQGTTVTVSSASTKGPSVFPLAPSSKSTSGGTAALGCLVKDYFPEPVTVSWNSGALTSGVHTFPAVLQSSGLYSLESVVTVPSSSLGTQTYICNVNHKPSNTKVDKKVEPKSCDKTHTCPPCPAPELLGGPSVFLFPPKPKDTLMISRTPEVTCVVVDVSHEDPEVKFNWYVDGVEVHNAKTKPCEEQYGSTYRCVSVLTVLHQDWLNGKEYKCKVSNKALPAPIEKTISKAKGQPREPQVYTLPPSRKKMTKNQVSLTCLVKGFYPSDIAVEWESNGQPENNYKTTPPVLKSDGSFFLYSKLTVDKSRWQQGNVFSCSVMHEALHNHYTQKSLSLSPGK light 2: EIVLTQSPATLSLSPGERATLSCRASKAVGWSLHWYQQKPGQAPRLLIKYASQSLSGIPARFSGSGSGTDFTLTISSLEPEDFAVYYCHQSSRLPFTFGPGTKVDIKRTVAAPSVFIFPPSDEQLKSGTASVVCLLNNFYPREAKVQWKVDNALQSGNSQESVTEQDSKDSTYSLESTLTLSKADYEKHKVYACEVTHQGLSSPVTKSFNRGEC heavy 2: not shown | 0.6 | 1.01 | 10.9 | 0.67
6 | iPS:454909 (bispecific antibody, human IgG1, kappa, lambda, N297G) light 1: QSVLTQPPSVSAAPGQKVTISCSGSSSNIGNNYVSWYQQLPGTAPKLLIYDNNKRPSGIPDRFSGSKSGTSTTLGITGLQTGDEADYYCGTWDSRLSAVVFGGGTKLTVLGQPKAAPSVTLFPPSSEELQANKATLVCLISDFYPGAVTVAWKADSSPVKAGVETTTPSKQSNNKYAAKSYLSLTPEQWKSHRSYSCQVTHEGSTVEKTVAPTECS heavy 1: QVQLVESGGGVVQPGRSLRLSCAASGFTFSSFGMHWVRQAPGKGLEWVAVISFDGSIKYSVDSVKGRFTISRDNSKNTLFLQMNSLRAEDTAVYYCARDRLNYYRSFGYYGYHYYGMAVWGQGTTVTVSSASTKGPSVFPLAPSSKSTSGGTAALGCLVKDYFPEPVTVSWNSGALTSGVHTFPAVLQSSGLYSLESVVTVPSSSLGTQTYICNVNHKPSNTKVDKKVEPKSCDKTHTCPPCPAPELLGGPSVFLFPPKPKDTLMISRTPEVTCVVVDVSHEDPEVKFNWYVDGVEVHNAKTKPCEEQYGSTYRCVSVLTVLHQDWLNGKEYKCKVSNKALPAPIEKTISKAKGQPREPQVYTLPPSRKKMTKNQVSLTCLVKGFYPSDIAVEWESNGQPENNYKTTPPVLKSDGSFFLYSKLTVDKSRWQQGNVFSCSVMHEALHNHYTQKSLSLSPGK light 2: EIVLTQSPATLSLSPGERATLSCRASKSVGWSLHWYQQKPGQAPRLLIKYASQSLSGIPARFSGSGSGTDFTLTISSLEPEDFAVYYCHQSSRLPFTFGPGTKVDIKRTVAAPSVFIFPPSDEQLKSGTASVVCLLNNFYPREAKVQWKVDNALQSGNSQESVTEQDSKDSTYSLESTLTLSKADYEKHKVYACEVTHQGLSSPVTKSFNRGEC heavy 2: not shown | 0.4 | 1.49 | 9.5 | 0.77

From patent publication US20220363770A1 (Amgen, published 2022)
